Data taken from patent US20250197488A1 (MABWELL SHANGHAI BIOSCIENCE, published 2025).

T1: IL-11 (Cat. 12225-HNCE, Sino Biological Inc.) (UniProt P20809 22-199, limits assumed)
T1 sequence (looked up): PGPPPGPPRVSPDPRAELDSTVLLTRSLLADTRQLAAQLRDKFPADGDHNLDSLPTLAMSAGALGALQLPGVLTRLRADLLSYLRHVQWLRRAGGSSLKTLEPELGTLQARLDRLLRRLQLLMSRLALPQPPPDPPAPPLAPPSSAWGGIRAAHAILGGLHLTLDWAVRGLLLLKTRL

T2: human IL-11 (AAH12506.1, Pro22-Leu199) (human, UniProt P20809 22-199)
T2 construct: The range Pro22-Leu199 counts on AAH12506.1; The Octet runs say only 'human IL-11'; also called hIL-11
T2 chain: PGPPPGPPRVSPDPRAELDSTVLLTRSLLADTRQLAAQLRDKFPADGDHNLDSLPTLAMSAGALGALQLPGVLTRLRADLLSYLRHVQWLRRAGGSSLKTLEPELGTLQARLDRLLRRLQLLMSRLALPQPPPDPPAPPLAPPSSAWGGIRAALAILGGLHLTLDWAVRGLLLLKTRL


Assays:
[1] = target: T1, IL-11 (Cat. 12225-HNCE, Sino Biological …); experiment: cell-based or functional assay
[2] = target: T1, IL-11 (Cat. 12225-HNCE, Sino Biological …); experiment: competition ELISA, IL-11/IL-11Rα/GP130 complex
Procedure: The activity of the recombinant murine anti-IL-11 antibodies for blocking the formation of IL-11/IL-11Rα/GP130 complex was analyzed via competition ELISA. IL-11Rα-His (NP_004503.1, Met1-Val363, C-terminus-6-His Tag) was firstly added into ELISA plates to be coated overnight. Next day, samples were prepared as follows. […] After co-incubating and washing, an HRP conjugated anti-human Fc secondary antibody was added to develop the color which was then detected.
(§1) Then, light and heavy chain expression vectors for preparing mutant antibodies were constructed according to the method for preparing the recombinant antibodies provided in Example 4, using the mutant sequences shown in Table 3 which accordingly were linked with human IgG1 constant regions (SEQ ID NO. 13, and SEQ ID NO.14). Subsequently, the light chain and the heavy chain were reasonably matched and co-transfected into eukaryotic cells for transient expression, and then recombination protein samples of the mutant antibodies were obtained through affinity purification. The samples obtained were tested for affinity on Fortebio Octet, according to the method for measuring affinity provided in Example 1. Further, using the protocol provided in Example 3, hz8C8 and its affinity matured mutants were analyzed for their activity for blocking the formation of IL-11/IL-11Rα/GP130 complex.

[3] = target: T2, human IL-11 (AAH12506.1, Pro22-Leu199); experiment: BLI (Octet), antibody captured, human IL-11 in solution
Procedure: The affinity of the murine antibodies purified from the hybridoma supernatants was determined using an Octet QKe System instrument from Fortebio Inc. with an anti-mouse IgG Fc Capture biosensor to capture the Fc fragments of the antibodies, for which an anti-IL-11 antibody named “3C6-mFc” recombinantly expressed was used at the same concentration as a positive control. Specifically, a hybridoma supernatant was diluted with HBS-EP+ buffer (GE), and was allowed to pass through the surface of AMC probes (Cat: 18-5088, PALL), and so the antibody in the hybridoma supernatant was captured on the surface of the probes; then, human IL-11 diluted in the HBS-EP+ buffer (300 nM) was used as a mobile phase to react with the antibody captured on the surface of the probes. Both the binding and the dissociating were conducted for 300 seconds. When the experiment was finished, data from which response values of blank controls had been deducted was fitted using a 1:1 Langmuir binding model by software, and then kinetic constants for antigen-antibody binding were calculated. Binding signals were detected on the Octet QKe System instrument with Hy5C2, Hy8C8, Hy16B5, Hy18A10, and Hy18H10.
The affinity of hz18A10 and hz8C8 was determined according to the method provided in Example 1 using AHC bioprobes for capturing human Fc fragment instead, with other conditions unchanged. A recombinantly expressed anti-IL-11 antibody 3C6-hFc was used at the same concentration as a positive control.
as §1, with “1.” for “1. Further, using the protocol provided in Example 3, hz8C8 and its affinity matured mutants were analyzed for their activity for blocking the formation of IL-11/IL-11Rα/GP130 complex.”

Blocking activity (IC50), STAT3-luc reporter [1]	IC50 [2]	Kd [3]	koff [3]	kon [3]	Binder
2.13 µg/mL	2.09 µg/mL	0.613 nM	0.000472 s⁻¹	770000 M⁻¹ s⁻¹	hz8C8-VHm1 + hz8C8-VL (antibody, human IgG1, kappa, V domains shown, human IgG1 constant regions) VH: EVQLVESGGGLVQPGGSLRLSCAASGFTFSSFGMHWVRQAPGKGLEWVAYITPGSNTIYYADTVKGRFTISRDNAKNSLYLQMNSLRAEDTAVYYCAREYYSYDEGFAYWGQGTLVTVSS VL: EIVLTQSPATLSLSPGERATLSCSVSSSISSNYLHWYQQKPGQAPRLLIYRTSNLASGIPARFSGSGSGTDFTLTISSLEPEDFAVYYCQQGVDVPFTFGQGTKLEIKR
0.1 µg/mL	0.838 µg/mL	0.479 nM	0.000406 s⁻¹	848000 M⁻¹ s⁻¹	hz8C8-VHm1 + hz8C8-VLm5 (antibody, human IgG1, kappa, V domains shown, human IgG1 constant regions) VH: EVQLVESGGGLVQPGGSLRLSCAASGFTFSSFGMHWVRQAPGKGLEWVAYITPGSNTIYYADTVKGRFTISRDNAKNSLYLQMNSLRAEDTAVYYCAREYYSYDEGFAYWGQGTLVTVSS VL: EIVLTQSPATLSLSPGERATLSCSVSELLSTNYLHWYQQKPGQAPRLLIYRTSNLASGIPARFSGSGSGTDFTLTISSLEPEDFAVYYCQQGVDVPFTFGQGTKLEIKR
0.076 µg/mL	1.01 µg/mL	0.0412 nM	2.23e-05 s⁻¹	543000 M⁻¹ s⁻¹	hz8C8-VHm1 + hz8C8-VLm6 (antibody, human IgG1, kappa, V domains shown, human IgG1 constant regions) VH: EVQLVESGGGLVQPGGSLRLSCAASGFTFSSFGMHWVRQAPGKGLEWVAYITPGSNTIYYADTVKGRFTISRDNAKNSLYLQMNSLRAEDTAVYYCAREYYSYDEGFAYWGQGTLVTVSS VL: EIVLTQSPATLSLSPGERATLSCSVSSLIPSKYLHWYQQKPGQAPRLLIYRTSNLASGIPARFSGSGSGTDFTLTISSLEPEDFAVYYCQQGVDVPFTFGQGTKLEIKR
0.017 µg/mL	0.85 µg/mL	0.00429 nM	3.52e-06 s⁻¹	822000 M⁻¹ s⁻¹	hz8C8-VHm1 + hz8C8-VLm7 (antibody, human IgG1, kappa, V domains shown, human IgG1 constant regions; also called hz8C8m7) VH: EVQLVESGGGLVQPGGSLRLSCAASGFTFSSFGMHWVRQAPGKGLEWVAYITPGSNTIYYADTVKGRFTISRDNAKNSLYLQMNSLRAEDTAVYYCAREYYSYDEGFAYWGQGTLVTVSS VL: EIVLTQSPATLSLSPGERATLSCSVSDLIPSQYLHWYQQKPGQAPRLLIYRTSNLASGIPARFSGSGSGTDFTLTISSLEPEDFAVYYCQQGVDVPFTFGQGTKLEIKR
0.017 µg/mL	0.73 µg/mL	0.0795 nM	8.99e-05 s⁻¹	1.13e+06 M⁻¹ s⁻¹	hz8C8-VHm1 + hz8C8-VLm7-m3 (antibody, human IgG1, kappa, V domains shown, human IgG1 constant regions) VH: EVQLVESGGGLVQPGGSLRLSCAASGFTFSSFGMHWVRQAPGKGLEWVAYITPGSNTIYYADTVKGRFTISRDNAKNSLYLQMNSLRAEDTAVYYCAREYYSYDEGFAYWGQGTLVTVSS VL: EIVLTQSPATLSLSPGERATLSCSVSDLIPSQYLHWYQQKPGQAPRLLIYGASNLASGIPARFSGSGSGTDFTLTISSLEPEDFAVYYCQQGVDVPFTFGQGTKLEIKR
0.024 µg/mL	0.74 µg/mL	0.0347 nM	3.7e-05 s⁻¹	1.07e+06 M⁻¹ s⁻¹	hz8C8-VHm1 + hz8C8-VLm7-m2 (antibody, human IgG1, kappa, V domains shown, human IgG1 constant regions) VH: EVQLVESGGGLVQPGGSLRLSCAASGFTFSSFGMHWVRQAPGKGLEWVAYITPGSNTIYYADTVKGRFTISRDNAKNSLYLQMNSLRAEDTAVYYCAREYYSYDEGFAYWGQGTLVTVSS VL: EIVLTQSPATLSLSPGERATLSCSVSDLIPSQYLHWYQQKPGQAPRLLIYDASNLASGIPARFSGSGSGTDFTLTISSLEPEDFAVYYCQQGVDVPFTFGQGTKLEIKR
0.038 µg/mL	1.14 µg/mL	0.388 nM	0.000229 s⁻¹	590000 M⁻¹ s⁻¹	hz8C8-VHm1 + hz8C8-VLm2 (antibody, human IgG1, kappa, V domains shown, human IgG1 constant regions) VH: EVQLVESGGGLVQPGGSLRLSCAASGFTFSSFGMHWVRQAPGKGLEWVAYITPGSNTIYYADTVKGRFTISRDNAKNSLYLQMNSLRAEDTAVYYCAREYYSYDEGFAYWGQGTLVTVSS VL: EIVLTQSPATLSLSPGERATLSCSVSSSISSKYLHWYQQKPGQAPRLLIYRTSNLASGIPARFSGSGSGTDFTLTISSLEPEDFAVYYCQQGVDVPFTFGQGTKLEIKR
0.804 µg/mL	1.24 µg/mL	0.178 nM	0.000125 s⁻¹	705000 M⁻¹ s⁻¹	hz8C8-VHm1 + hz8C8-VLm1 (antibody, human IgG1, kappa, V domains shown, human IgG1 constant regions) VH: EVQLVESGGGLVQPGGSLRLSCAASGFTFSSFGMHWVRQAPGKGLEWVAYITPGSNTIYYADTVKGRFTISRDNAKNSLYLQMNSLRAEDTAVYYCAREYYSYDEGFAYWGQGTLVTVSS VL: EIVLTQSPATLSLSPGERATLSCSVSSSIPSNYLHWYQQKPGQAPRLLIYRTSNLASGIPARFSGSGSGTDFTLTISSLEPEDFAVYYCQQGVDVPFTFGQGTKLEIKR
0.021 µg/mL	0.69 µg/mL	0.178 nM	0.000178 s⁻¹	1e+06 M⁻¹ s⁻¹	hz8C8-VHm1 + hz8C8-VLm7-m4 (antibody, human IgG1, kappa, V domains shown, human IgG1 constant regions) VH: EVQLVESGGGLVQPGGSLRLSCAASGFTFSSFGMHWVRQAPGKGLEWVAYITPGSNTIYYADTVKGRFTISRDNAKNSLYLQMNSLRAEDTAVYYCAREYYSYDEGFAYWGQGTLVTVSS VL: EIVLTQSPATLSLSPGERATLSCSVSDLIPSQYLHWYQQKPGQAPRLLIYRTSNRASGIPARFSGSGSGTDFTLTISSLEPEDFAVYYCQQGVDVPFTFGQGTKLEIKR
0.068 µg/mL	0.58 µg/mL	0.13 nM	0.000136 s⁻¹	1.05e+06 M⁻¹ s⁻¹	hz8C8-VHm1 + hz8C8-VLm7-m1 (antibody, human IgG1, kappa, V domains shown, human IgG1 constant regions) VH: EVQLVESGGGLVQPGGSLRLSCAASGFTFSSFGMHWVRQAPGKGLEWVAYITPGSNTIYYADTVKGRFTISRDNAKNSLYLQMNSLRAEDTAVYYCAREYYSYDEGFAYWGQGTLVTVSS VL: EIVLTQSPATLSLSPGERATLSCSVSDLIPSQYLHWYQQKPGQAPRLLIYRASNLASGIPARFSGSGSGTDFTLTISSLEPEDFAVYYCQQGVDVPFTFGQGTKLEIKR
0.098 µg/mL	0.846 µg/mL	0.161 nM	0.000141 s⁻¹	874000 M⁻¹ s⁻¹	hz8C8-VHm1 + hz8C8-VLm4 (antibody, human IgG1, kappa, V domains shown, human IgG1 constant regions) VH: EVQLVESGGGLVQPGGSLRLSCAASGFTFSSFGMHWVRQAPGKGLEWVAYITPGSNTIYYADTVKGRFTISRDNAKNSLYLQMNSLRAEDTAVYYCAREYYSYDEGFAYWGQGTLVTVSS VL: EIVLTQSPATLSLSPGERATLSCSVSDLISSNYLHWYQQKPGQAPRLLIYRTSNLASGIPARFSGSGSGTDFTLTISSLEPEDFAVYYCQQGVDVPFTFGQGTKLEIKR
0.125 µg/mL	0.943 µg/mL	0.636 nM	0.000496 s⁻¹	780000 M⁻¹ s⁻¹	hz8C8-VHm1 + hz8C8-VLm3 (antibody, human IgG1, kappa, V domains shown, human IgG1 constant regions) VH: EVQLVESGGGLVQPGGSLRLSCAASGFTFSSFGMHWVRQAPGKGLEWVAYITPGSNTIYYADTVKGRFTISRDNAKNSLYLQMNSLRAEDTAVYYCAREYYSYDEGFAYWGQGTLVTVSS VL: EIVLTQSPATLSLSPGERATLSCSVSSLISSNYLHWYQQKPGQAPRLLIYRTSNLASGIPARFSGSGSGTDFTLTISSLEPEDFAVYYCQQGVDVPFTFGQGTKLEIKR
